Laboratory results taken from patent US20230406921A1 (MABWELL SHANGHAI BIOSCIENCE, published 2023).
Positions count from the first letter of the chain named.

B1: anti-human CD47/PD-L1 bispecific antibody 2MW1531-p (bispecific antibody)
heavy 1: EVQLVQSGAEVKKPGASVKVSCKASGYKFTNYVMSWVRQAPGQRLEWMGYINPYNDAIKYNEKFTGRVTITRDTSASTAYMELSSLRSEDTAVYYCAREGDFYANYGRLGFAYWGQGTLVTVSSASTKGPSVFPLAPCSRSTSESTAALGCLVKDYFPEPVTVSWNSGALTSGVHTFPAVLQSSGLYSLSSVVTVPSSSLGTQTYTCNVDHKPSNTKVDKRVESKYGPPCPPCPAPEFLGGPSVFLFPPKPKDTLMISRTPEVTCVVVDVSQEDPEVQFNWYVDGVEVHNAKTKPREEQYNSTYRVVSVLTVLHQDWLNGKEYKCKVSNKGLPSSIEKTISKAKGQPREPQVYTLPPSQKEMTKNQVSLTCLVKGFYPSDIAVEWESNGQPENNYKTTPPVLDSDGSFFLYSKLTVDKSRWQEGNVFSCSVMHEALHNRYTQKSLSLSLGK
heavy 2: EVQLVQSGAEVKKPGATVKISCKVSGFNIKDIYMHWVQQAPGKGLEWMGRIDPANANTKYDPKFQDRVTITADTSTNTAYMELSSLRSEDTAVYYCASGQLGPLGFDYWGQGTTVTVSSASTKGPSVFPLAPCSRSTSESTAALGCLVKDYFPEPVTVSWNSGALTSGVHTFPAVLQSSGLYSLSSVVTVPSSSLGTQTYTCNVDHKPSNTKVDKRVESKYGPPCPPCPAPEFLGGPSVFLFPPKPKDTLMISRTPEVTCVVVDVSQEDPEVQFNWYVDGVEVHNAKTKPREEQYNSTYRVVSVLTVLHQDWLNGKEYKCKVSNKGLPSSIEKTISKAKGQPREPQVYTLPPSQEEMTKNQVSLTCLVKGFYPSDIAVEWESNGQPENNYKTTPPVLDSDGSFFLYSKLTVDKSRWQEGNVFSCSVMHEALHNHYTQESLSLSLGK
VL: DIQMTQSPSSLSASVGDRVTITCRASQDISNYLNWYQQKPGKAPKLLLYYTSRLHSGVPSRFSGSGSGTDYTLTISSLQPEDFATYFCQQGAGRPYTFGGGTKVEIK
notes: Knobs-into-holes: heavy chain A hz140-H-A (anti-CD47), heavy chain B hz182-H-B (anti-PD-L1), common light chain
B2: anti-human CD47/PD-L1 bispecific antibody 2MW1531-m3 (bispecific antibody)
heavy 1: B1 heavy 1
heavy 2: B1 heavy 2
VL: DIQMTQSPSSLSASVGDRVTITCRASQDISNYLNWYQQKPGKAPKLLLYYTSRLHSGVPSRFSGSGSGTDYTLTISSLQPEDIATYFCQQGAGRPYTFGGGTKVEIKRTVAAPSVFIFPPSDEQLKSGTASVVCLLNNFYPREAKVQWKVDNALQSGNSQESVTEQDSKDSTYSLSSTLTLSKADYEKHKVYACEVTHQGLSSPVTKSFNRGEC
notes: Knobs-into-holes with a common light chain
B3: anti-human CD47/PD-L1 bispecific antibody 2MW1531-m7 (bispecific antibody, human IgG4 S228P, kappa)
heavy 1: B1 heavy 1
heavy 2: B1 heavy 2
VL: DIQMTQSPSSLSASVGDRVTITCRASQDISNYLNWYQQKPGKAPKLLLYYTSRLHSGVPSRFSGSGSGTDYTLTISSLQPEDFATYFCQQGAGFPYTFGGGTKVEIKRTVAAPSVFIFPPSDEQLKSGTASVVCLLNNFYPREAKVQWKVDNALQSGNSQESVTEQDSKDSTYSLSSTLTLSKADYEKHKVYACEVTHQGLSSPVTKSFNRGEC
notes: as for B2
B4: anti-human CD47/PD-L1 bispecific antibody 2MW1531-m8 (bispecific antibody)
heavy 1: B1 heavy 1
heavy 2: B1 heavy 2
VL: B3 VL with F94R, Y96R
notes: as for B2
B5: anti-human CD47/PD-L1 bispecific antibody 2MW1531-m4 (bispecific antibody)
heavy 1: B1 heavy 1
heavy 2: B1 heavy 2
VL: B3 VL with S30T, F94R
notes: as for B2
B6: anti-human CD47/PD-L1 bispecific antibody 2MW1531-m11 (bispecific antibody)
heavy 1: B1 heavy 1
heavy 2: B1 heavy 2
VL: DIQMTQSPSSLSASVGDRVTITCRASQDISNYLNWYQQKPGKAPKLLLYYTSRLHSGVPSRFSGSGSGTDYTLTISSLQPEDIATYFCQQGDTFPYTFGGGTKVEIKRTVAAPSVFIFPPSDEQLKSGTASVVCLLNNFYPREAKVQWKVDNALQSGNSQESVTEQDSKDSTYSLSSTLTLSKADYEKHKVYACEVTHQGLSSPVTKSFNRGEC
notes: as for B2
B7: anti-human CD47/PD-L1 bispecific antibody 2MW1531-m6 (bispecific antibody)
heavy 1: B1 heavy 1
heavy 2: B1 heavy 2
VL: B3 VL with G93T, F94R
notes: as for B2
B8: anti-human CD47/PD-L1 bispecific antibody 2MW1531-m1 (bispecific antibody)
heavy 1: B1 heavy 1
heavy 2: B1 heavy 2
VL: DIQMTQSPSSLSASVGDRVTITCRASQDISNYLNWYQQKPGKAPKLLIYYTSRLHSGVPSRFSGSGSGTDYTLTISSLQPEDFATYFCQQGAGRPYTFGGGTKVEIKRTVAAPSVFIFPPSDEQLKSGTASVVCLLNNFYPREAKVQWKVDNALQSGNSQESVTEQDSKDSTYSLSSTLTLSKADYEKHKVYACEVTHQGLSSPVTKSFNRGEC
notes: as for B2
B9: anti-human CD47/PD-L1 bispecific antibody 2MW1531-m2 (bispecific antibody)
heavy 1: B1 heavy 1
heavy 2: B1 heavy 2
VL: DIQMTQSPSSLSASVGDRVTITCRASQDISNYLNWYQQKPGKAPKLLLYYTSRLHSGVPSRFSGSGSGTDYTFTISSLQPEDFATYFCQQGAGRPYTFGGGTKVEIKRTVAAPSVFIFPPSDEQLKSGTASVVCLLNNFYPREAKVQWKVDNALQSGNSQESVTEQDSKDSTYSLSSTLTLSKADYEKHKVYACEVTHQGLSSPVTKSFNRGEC
notes: as for B2
B10: anti-human CD47/PD-L1 bispecific antibody 2MW1531-m9 (bispecific antibody, human IgG4 S228P, kappa)
heavy 1: B1 heavy 1
heavy 2: B1 heavy 2
VL: B3 VL with A92D, G93T
notes: as for B2
B11: anti-human CD47/PD-L1 bispecific antibody 2MW1531-m5 (bispecific antibody)
heavy 1: B1 heavy 1
heavy 2: B1 heavy 2
VL: B3 VL with A92D, F94R
notes: as for B2
B12: anti-human CD47/PD-L1 bispecific antibody 2MW1531-m10 (bispecific antibody)
heavy 1: B1 heavy 1
heavy 2: B1 heavy 2
VL: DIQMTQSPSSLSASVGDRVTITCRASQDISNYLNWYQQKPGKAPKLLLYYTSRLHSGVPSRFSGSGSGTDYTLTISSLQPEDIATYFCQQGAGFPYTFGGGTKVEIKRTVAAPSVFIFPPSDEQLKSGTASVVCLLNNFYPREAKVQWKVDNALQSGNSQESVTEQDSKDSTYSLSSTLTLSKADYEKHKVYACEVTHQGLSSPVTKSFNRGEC
notes: as for B2
B13: h140Hm13/h140L (antibody, V domains shown)
VH: EVQLVQSGAEVKKPGASVKVSCKASGYKFTNYVMSWVRQAPGQRLEWMGYINPYNDAIKYNEKFTGRVTITRDTSASTAYMELSSLRSEDTAVYYCAREGDFYANYGRLGFAYWGQGTLVTVSS
VL: B1 VL with S30T, L48I, L73F, F83I, A92D, G93T, R94F, Y96R
notes: Heavy chain mutant 140Hm13 with the unmutated light chain of hz140
B14: h140Hm13/h140Lm1 (antibody, V domains shown)
VH: B13 VH
VL: B1 VL with L48I, L73F, F83I, A92D, G93T, R94F, Y96R
notes: also called h140Lml
B15: h140Hm13/h140Lm5 (antibody, V domains shown)
VH: B13 VH
VL: B1 VL with S30T, L48I, L73F, F83I, G93T, R94F, Y96R
B16: h140Hm13/h140Lm4 (antibody, V domains shown)
VH: B13 VH
VL: B1 VL with S30T, L48I, L73F, A92D, G93T, R94F, Y96R
B17: h140Hm13/h140Lm3 (antibody, V domains shown)
VH: B13 VH
VL: B1 VL with S30T, L48I, F83I, A92D, G93T, R94F, Y96R
B18: h140Hm13/h140Lm7 (antibody, V domains shown)
VH: B13 VH
VL: B1 VL with S30T, L48I, L73F, F83I, A92D, G93T, Y96R
B19: h140Hm13/h140Lm2 (antibody, V domains shown)
VH: B13 VH
VL: B1 VL with S30T, L73F, F83I, A92D, G93T, R94F, Y96R
B20: h140Hm13/h140Lm6 (antibody, V domains shown)
VH: B13 VH
VL: B1 VL with S30T, L48I, L73F, F83I, A92D, R94F, Y96R
B21: h140Hm13/h140Lm9 (antibody, V domains shown)
VH: B13 VH
VL: B1 VL with S30T, L48I, L73F, F83I, Y96R
notes: also called h140Lmut9; mut9

target: T1, CD47 on the surface of tumor cells (human, UniProt Q08722 19-323); experiment: FACS, SKOV-3 tumor cells (no PD-L1), antibody 100 nM
T1 construct: whole, on cells; Same protein as m4; also called CD47 antigen on the surface of U937 and CCRF cells; SKOV-3
Protocol: (§1) In the experiment of analyzing the binding to human red blood cells, the antibody was used at a concentration of 1000 nM; and in the experiment of analyzing the binding to tumor cells, the antibody was used at a concentration of 100 nM.

Point of comparison: B1, “Binding to tumor cells (MFI)” value 35400 MFI. Against it:
- B2 — lower, 34900 MFI
- B3 — lower, 28200 MFI
- B4 — lower, 28200 MFI
- B5 — lower, 31100 MFI
- B6 — lower, 28900 MFI
- B7 — lower, 24700 MFI
- B8 — lower, 33300 MFI
- B9 — lower, 29900 MFI
- B10 — higher, 37800 MFI
- B11 — lower, 30900 MFI
- B12 — lower, 26200 MFI

target: T2, CD47 on the surface of human red blood cells (human, UniProt Q08722 19-323); experiment: FACS, human red blood cells, antibody 1000 nM
T2 construct: whole, on cells; Same protein as m3, on red blood cells; also called hRBC; RBC
Protocol: as §1

Point of comparison: B7, “Binding to human red blood cells (MFI)” value 912 MFI. Against it:
- B2 — higher, 955 MFI
- B4 — lower, 763 MFI
- B5 — lower, 903 MFI
- B6 — lower, 878 MFI
- B8 — lower, 888 MFI
- B9 — lower, 799 MFI
- B10 — lower, 781 MFI
- B11 — lower, 807 MFI
- B12 — lower, 890 MFI

target: T2, CD47 on the surface of human red blood …; experiment: FACS, hRBC, 500 nM
Protocol: (§2) The difference between the binding of the mutant to CD47 on the surface of tumor cells and CD47 on the surface of red blood cells was evaluated.

Point of comparison: B14, “FACS (MFI)” value 28700 MFI. Against it:
- B13 — lower, 27400 MFI
- B15 — lower, 27300 MFI
- B16 — lower, 24200 MFI
- B17 — higher, 30600 MFI
- B18 — lower, 16700 MFI
- B19 — lower, 26100 MFI
- B20 — lower, 27200 MFI
- B21 — lower, 17700 MFI

target: T3, recombinant antigen of the extracellular region of CD47 (Sino Biological, Cat: 12283-H08H) (human, UniProt Q08722 19-139); experiment: Fortebio BLI
T3 construct: extracellular domain; also called recombinant CD47 extracellular region; CD47 recombinant protein

Point of comparison: B10, Kd 79.6 nM. Against it:
- B1 — 9.3-fold lower, 8.56 nM
- B2 — within 1.5-fold, 65.7 nM
- B3 — within 1.5-fold, 62.1 nM
- B4 — within 1.5-fold, 107 nM
- B5 — 3-fold lower, 26.5 nM
- B6 — within 1.5-fold, 74.9 nM
- B7 — within 1.5-fold, 84.5 nM
- B8 — 3.5-fold lower, 22.5 nM
- B9 — within 1.5-fold, 81 nM
- B11 — 7.4-fold lower, 10.8 nM
- B12 — within 1.5-fold, 54.8 nM

Point of comparison: B5, koff 0.00321 s⁻¹. Against it:
- B1 — 2.5-fold lower, 0.00131 s⁻¹
- B2 — 2.4-fold higher, 0.00769 s⁻¹
- B3 — 2.5-fold higher, 0.00814 s⁻¹
- B4 — 2.9-fold higher, 0.00937 s⁻¹
- B6 — 2.8-fold higher, 0.00907 s⁻¹
- B7 — 2.7-fold higher, 0.00879 s⁻¹
- B8 — 1.5-fold lower, 0.00213 s⁻¹
- B9 — 2.1-fold higher, 0.00678 s⁻¹
- B10 — 3-fold higher, 0.00947 s⁻¹
- B11 — 3.2-fold lower, 0.00101 s⁻¹
- B12 — 1.7-fold higher, 0.00547 s⁻¹

Point of comparison: B10, kon 119000 M⁻¹ s⁻¹. Against it:
- B1 — within 1.5-fold, 153000 M⁻¹ s⁻¹
- B2 — within 1.5-fold, 117000 M⁻¹ s⁻¹
- B3 — within 1.5-fold, 131000 M⁻¹ s⁻¹
- B4 — within 1.5-fold, 87900 M⁻¹ s⁻¹
- B5 — within 1.5-fold, 121000 M⁻¹ s⁻¹
- B6 — within 1.5-fold, 121000 M⁻¹ s⁻¹
- B7 — within 1.5-fold, 104000 M⁻¹ s⁻¹
- B8 — within 1.5-fold, 94600 M⁻¹ s⁻¹
- B9 — within 1.5-fold, 83700 M⁻¹ s⁻¹
- B11 — within 1.5-fold, 93600 M⁻¹ s⁻¹
- B12 — within 1.5-fold, 99800 M⁻¹ s⁻¹

target: PD-L1 (human, UniProt Q9NZQ7 19-239, limits assumed); experiment: Fortebio BLI
Sequence (Q9NZQ7 19-239 limits assumed): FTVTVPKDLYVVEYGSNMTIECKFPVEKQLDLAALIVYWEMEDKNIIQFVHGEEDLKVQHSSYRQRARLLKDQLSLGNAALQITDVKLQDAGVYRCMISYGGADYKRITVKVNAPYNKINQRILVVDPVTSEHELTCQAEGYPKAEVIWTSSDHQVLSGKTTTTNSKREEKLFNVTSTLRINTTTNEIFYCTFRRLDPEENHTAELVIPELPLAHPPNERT

Point of comparison: B7, Kd 1.73 nM. Against it:
- B1 — 3.6-fold lower, 0.474 nM
- B2 — 1.7-fold lower, 1.02 nM
- B3 — 1.9-fold lower, 0.917 nM
- B4 — 3.2-fold lower, 0.546 nM
- B5 — 2.2-fold higher, 3.78 nM
- B6 — 2.2-fold lower, 0.784 nM
- B8 — within 1.5-fold, 1.59 nM
- B9 — 1.9-fold higher, 3.26 nM
- B10 — 2.5-fold lower, 0.706 nM
- B11 — 1.7-fold lower, 1.02 nM
- B12 — within 1.5-fold, 1.28 nM

Point of comparison: B9, koff 0.000696 s⁻¹. Against it:
- B1 — 4.7-fold lower, 0.000147 s⁻¹
- B2 — 4.3-fold lower, 0.000163 s⁻¹
- B3 — 3.3-fold lower, 0.00021 s⁻¹
- B4 — 5.2-fold lower, 0.000134 s⁻¹
- B5 — within 1.5-fold, 0.000707 s⁻¹
- B6 — 2.9-fold lower, 0.000237 s⁻¹
- B7 — within 1.5-fold, 0.000496 s⁻¹
- B8 — 1.8-fold lower, 0.000387 s⁻¹
- B10 — 2.6-fold lower, 0.000272 s⁻¹
- B11 — 1.9-fold lower, 0.000357 s⁻¹
- B12 — 1.9-fold lower, 0.000369 s⁻¹

Point of comparison: B7, kon 287000 M⁻¹ s⁻¹. Against it:
- B1 — within 1.5-fold, 310000 M⁻¹ s⁻¹
- B2 — 1.8-fold lower, 159000 M⁻¹ s⁻¹
- B3 — within 1.5-fold, 230000 M⁻¹ s⁻¹
- B4 — within 1.5-fold, 245000 M⁻¹ s⁻¹
- B5 — 1.5-fold lower, 187000 M⁻¹ s⁻¹
- B6 — within 1.5-fold, 302000 M⁻¹ s⁻¹
- B8 — within 1.5-fold, 243000 M⁻¹ s⁻¹
- B9 — within 1.5-fold, 213000 M⁻¹ s⁻¹
- B10 — within 1.5-fold, 385000 M⁻¹ s⁻¹
- B11 — within 1.5-fold, 347000 M⁻¹ s⁻¹
- B12 — within 1.5-fold, 288000 M⁻¹ s⁻¹

target: T1, CD47 on the surface of tumor cells; experiment: FACS, tumor cells, 1 nM
Protocol: as §2

Point of comparison: B21, “FACS (MFI)” value 34600 MFI. Against it:
- B13 — higher, 102000 MFI
- B18 — higher, 40200 MFI
